Patent US5952463

Tests used:
[1] = biological target: purified secretion-type Kex2 proteinase (sKEX2 product, Saccharomyces yeast) (Saccharomyces yeast) (UniProt P13134); parameters: unit not given beside the values
[2] = biological target: Subtilisin
[3] = biological target: Thermolysin
[4] = biological target: Trypsin
[5] = biological target: Pepsin
[6] = biological target: Chymotrypsin
[7] = biological target: Subtilisin; remark: listed apart in the source
[8] = biological target: Thermolysin; remark: listed apart in the source
[9] = biological target: Trypsin; remark: listed apart in the source
[10] = biological target: Chymotrypsin; remark: listed apart in the source

B1: Kexstatin (proteinase inhibitor purified from the culture fluid of Streptomyces platensis Q268) (protein)
chain: GLYAPTELVLTVGQGESRATATVQRAVTLSCMPGARGSHPNPLGACTQLRAVAGDFNAITAATSDRLCTKEWNPLVVTADGVWQGKRVSYSYTFANRCEMNIDSDTVFNF
IC50 (amount of Kexstatin which inhibits the activity of 1 µg of Kex2 proteinase by 50%) (µg (per 1 µg of Kex2 proteinase)) [1]: 1.4
Inhibition Ratio (%), synthetic fluorescent substrate Suc-Ala-Ala-Pro-Phe-MCA, enzyme at 1/10 molar ratio to 0.5 µg of Kexstatin [2]: 99.5%
Inhibition Ratio (%), casein Folin method, enzyme at 1/10 molar ratio to 0.5 µg of Kexstatin [3]: 8%
Inhibition Ratio (%), synthetic fluorescent substrate Bz-Arg-MCA, enzyme at 1/10 molar ratio to 0.5 µg of Kexstatin [4]: 49.2%
Inhibition Ratio (%), casein Folin method, enzyme at 1/10 molar ratio to 0.5 µg of Kexstatin [5]: 0%
Inhibition Ratio (%), synthetic fluorescent substrate Suc-Ala-Ala-Pro-Phe-MCA, enzyme at 1/10 molar ratio to 0.5 µg of Kexstatin [6]: 0%
Inhibition Ratio (%), casein Folin method [7]: 87%
Inhibition Ratio (%), casein Folin method [8]: -5.5%
Inhibition Ratio (%), casein Folin method [9]: 2.4%
Inhibition Ratio (%), casein Folin method [10]: -19%
